Like-named read-outs stand apart in the source and are kept apart here. Ends that are not written are not given here.

In one series the test system is fixed Caco-2 cells. Kind of series: ELISA of GST fusion proteins on fixed Caco-2 cells. It is filed as binding. The conditions noted are these: in words. How it is done:
Fixed Caco-2, C2BBe1, and A431 cell plates were prepared by growing cells on tissue culture treated microtiter plates. When cells were confluent, plates were fixed with 10% formaldehyde, washed twice with PBS and stored with 0.5% BSA-PBS at −20° C. […] The standard ELISA procedure was followed at this point.
The standard ELISA procedure was modified as follows. GST proteins were diluted to an appropriate concentration in PBS containing 1% BSA and 0.05% Tween20 (1% BPT), titered and incubated one hour at room temperature. Following five washes an anti-GST monoclonal antibody was added (Sigma, St. Louis Clone GST-2 diluted 1:10,000 in 1% BPT) and incubated one hour. After five more washes goat anti-mouse IgG2b-HRP was added (Southern Biotechnology Associates Inc., Birmingham, Ala., diluted 1:4000 in 1% BPT) and incubated one hour. After five washes plates were developed with TMB peroxidase substrate (Kirkegard and Perry, Gaithersburg, Md.). All data is presented with background binding subtracted.

In a further series the test system is fixed C2BBe1 cells. The series is described as follows: Competition ELISA: dansylated peptides versus GST fusion proteins on fixed C2BBe1 cells. The conditions noted are these: 5 μg/ml concentration used in competition assays. It is filed as binding. How it is done: The standard ELISA procedure was modified as follows. GST fusion proteins and peptides were diluted to an appropriate concentration in PBS containing 1% BSA and 0.05% Tween 20. Peptides were titered, a constant concentration of diluted GST protein was added to titered peptides and the mixture was incubated one hour at room temperature. Following five washes, an anti-GST monoclonal antibody was added (Sigma, St. Louis Clone GST-2 diluted 1:10,000 in 1% BPT) and incubated one hour. After five more washes goat anti-mouse IgG2b-HRP was added (Southern Biotechnology Associates Inc., Birmingham, Ala., diluted 1:4000 in 1% BPT) and incubated one hour. After five washes plates were developed with TMB peroxidase substrate (Kirkegard and Perry, Gaithersburg, Md.). All data is presented with background binding subtracted.
Data is presented as O.D. vs. peptide concentration and as percent inhibition of GST-P31 binding vs. peptide concentration. Uncompeted GST-P31 binding was considered as 100% binding.
FIGS. 10A–10C present a compilation of data generated by competition ELISA of GST-P31, GST-PAX2, GST-SNi10 and GST-HAX42 versus various dansylated peptides on fixed C2BBe1 cells. IC50 values are in μM and include ranges determined from multiple assays. The GST/C2BBe1 column is a summary of GST protein binding to fixed C2BBe1 cells.

Series [1] deals with P100 membrane fraction of Caco-2 cells. The series is described as follows: GST-PAX2 peptides: relative binding to P100 fractions (ratio to GST-HAX42). The conditions noted are these: GST-peptide 20 μg/ml; binding to plastic subtracted; GST-HAX42 = 1.00. On the procedure:
The peptides and proteins were analyzed by a dansylated peptide ELISA method in which 96 well plates were coated overnight at 4° C. with 100 μl/well coating protein (normally 100 μg/ml P100 membrane fraction) in 0.05M carbonate buffer pH9.6. Nonspecific binding was blocked using 200 μl/well, 2% Marvel/PBS for 2 hours at 37° C. prior to incubation with dansylated peptides. The plates were washed three times with PBS/0.05% Tween 20 and after each subsequent incubation step. […] A buffer blank control was included to ensure that background binding to plastic was not due to the antibodies used in the assay system. […] The plates were then incubated with an anti-mouse λ-HRP conjugated antibody (Southern Biotech 1060-05) at a 1:10,000 dilution in blocking solution, 100 μl/well for 1 hour at room temperature. Plates were developed using 75 μl/well Bionostics TMB substrate and incubated for approximately 10 minutes. The developing reaction was stopped using Bionostics Red Stop solution (25 μl/well), and the optical density of the plates was read at 650 nm.
After subtraction of the GST-peptide binding to plastic from P100 binding values, the binding of GST-PAX2 peptides were represented as a ratio of GST-HAX42 binding to P100, which was given the arbitrary value of 1.00. The following ratios were determined from binding to P100 of GST-peptides at a peptide concentration of 20 μg/ml. […]

A further series has as its target T1, hPEPT1 (Homo sapiens, UniProt P46059).
T1 construct: 391–571; made in house
T1 sequence (P46059 391-571): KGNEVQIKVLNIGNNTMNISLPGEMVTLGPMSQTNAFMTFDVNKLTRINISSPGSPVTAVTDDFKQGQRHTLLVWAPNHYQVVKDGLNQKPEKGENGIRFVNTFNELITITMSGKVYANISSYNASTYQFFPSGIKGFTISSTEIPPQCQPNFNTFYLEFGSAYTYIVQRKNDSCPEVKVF
Kind of series: Receptor ELISA of phage on recombinant hPEPT1. It counts as binding. The conditions noted are these: Table 4. On the procedure: (§1) 96 well plates were coated overnight with GIT receptor, BSA and, optionally, IDE (insulin degrading enzyme, an irrelevant His-fusion protein)or hTF. The plates were blocked for one hour with 0.5% BSA-PBS. After clarification, the amplified phage were diluted 1:100 in 1% BSA plus 0.05% Tween 20 in PBS and added to the plates. Following incubation of the plates on a rotator for 1 to 2 hours, the plates were washed 5 times with 1% BSA plus 0.05% Tween 20 in PBS. […] After the plates were washed 5 times, as described above, TMB substrate was added to the wells. The plates were read at 650 nm absorbance.

The next series has as its target BSA (Bos taurus, UniProt P02769). Kind of series: Receptor ELISA of phage on BSA (background control protein). It counts as binding. The conditions noted are these: Table 4; phage panned on hPEPT1. How it is done:
96 well plates were coated overnight with GIT receptor, BSA and, optionally, IDE (insulin degrading enzyme, an irrelevant His-fusion protein)or hTF. The plates were blocked for one hour with 0.5% BSA-PBS. After clarification, the amplified phage were diluted 1:100 in 1% BSA plus 0.05% Tween 20 in PBS and added to the plates. Following incubation of the plates on a rotator for 1 to 2 hours, the plates were washed 5 times with 1% BSA plus 0.05% Tween 20 in PBS. Dilute anti-M13-HRP conjugate (anti-M13 antibody linked to horse radish peroxidase (HRP)) was added to all the wells and the plate was incubated for one hour on a rotator. After the plates were washed 5 times, as described above, TMB substrate was added to the wells. The plates were read at 650 nm absorbance.

Series [2] deals with rat gastro-intestinal tract (closed loop). The series is described as follows: Transport of preselected phage libraries in rat closed loop, detected by oligonucleotide hybridization/autoradiography. To be noted: hPEPT1 pool; in words. How it is done: Four preselected phage libraries, GI-D2H, GI-hSI, GI-HPT1 and GI-hPEPT1, were constructed by pooling phage previously selected by screening random phage display libraries D38 and DC43 using the HPT1, HPEPT1, D2H and hSI receptor or binding sites located in the GIT.
In particular, phages selected in vitro to each receptor or binding site located in the GIT were amplified in E. coli, PEG-precipitated, resuspended in TBS and the titer of each phage sample was determined by plaquing in E. coli as described above. […] Using the in situ loop model described above, 0.5 ml of preselected phage library solution was injected into the tied-off portion of the duodenum/jejunum. Blood was collected into heparinized tubes from the portal vein at 0, 15, 30, 45 and 60 minutes. A blood sample was taken from the systemic circulation at the end of the experiment. Similarly, the portion of the duodenum/jejunum used for phage injection was taken at the end of the experiment.
Thirty microliters of the collected portal blood (neat and 10^−2, 10^−1, 10^−6 dilutions) was added to 30 μl E. coli K91Kan cells (overnight culture) and incubated at 37° C. for 10 min. Subsequently, 3 ml of top agarose was added and the samples were plated for plaques. One hundred microliters of the collected portal blood was added to 100 μl of E. coli K91Kan. Five milliliters of LB medium was then added and the samples were incubated at 37° C. overnight in a rotating microbial incubator. The E. coli was removed by centrifugation and the amplified phage supernatant samples were either titered directly or were PEG-precipitated, resuspended in TBS and titered. Following titration of the amplified phage, samples containing phage from each set of animals were combined, adjusting the titer of each sample to the same titer, and were plated for plaques on LB agar lates (22 cm^2 square plates). Either 12,000 or 24,000 phage were lated for plaques.
Thirty microliters of the collected systemic blood (neat and 10^−2, 10^−1, 10^−6 dilutions) was added to E. coli K91Kan cells, incubated at 37° C. for 10 min. Three ml of top agarose was then added and the samples were plated for plaques. One hundred microliters of the collected systemic blood was added to 100 μl of E. coli K91Kan, incubated at 37° C. for 10 min. Five milliliters of LB medium was then added and the samples were incubated at 37° C. overnight in a rotating microbial incubator. The E. coli was removed by centrifugation and the amplified phage supernatant samples were either titered directly or were PEG-precipitated, resuspended in TBS and titered. Following titration of the amplified phage, samples containing phage from each set of animals were combined, adjusting the titer of each sample to the same titer, and were plated for plaques on LB agar plates (22 cm^2 square plates). Either 12,000 or 24,000 phage were plated for plaques.
The intestinal tissue portion used in each closed loop was excised. […] Alternatively, the tissue (in PBS supplemented with protease inhibitors) was homogenized in an Ultra Thorex homogenizer, washed 3 times in PBS containing protease inhibitors and resuspended in PBS containing protease inhibitors (Int-G samples). In each case, serial dilutions (neat and 10^−2, 10^−4, 10^−6 dilutions) of the tissue homogenate was titered in E. coli.
The phage amplified from the portal blood, systemic blood and intestinal tissue was plated for plaques. […] The filters were air-dried, and the DNA was cross-linked to the filter (UV crosslinking: 2 min, high setting). The filters were incubated in pre-hybridization buffer (6×SSC, 5× Denhardt's solution, 0.1% SDS, […] yeast tRNA) at 40° C.–45° C. for at least 60 min.
Synthetic oligonucleotides, (22-mers), complimentary to regions coding for the receptor or binding sites used to create the preselected phage library, were synthesized (see Table 14 below).

Series [3] concerns the target bovine serum albumin (bovine) (UniProt P02769). The series is described as follows: phage ELISA on coated BSA.
The target of series [4] is T2, recombinant hSI receptor domain (human sucrase-isomaltase complex, amino acid residues 272-667), His-tag … (human, UniProt P14410 272-667).
T2 construct: purified under denaturing conditions on Ni-NTA agarose; coated on plates; also called hS1
Kind of series: phage ELISA on coated hSI. On the procedure: as §1, with “6.6. Receptor ELISA Procedure 96” for “96”

The target in series [5] is T2, recombinant hSI receptor domain (human …). The series is described as follows: phage ELISA, OD on hSI over OD on BSA. On the procedure: as §1, with “6.6. Receptor ELISA Procedure 96” for “96”
For series [6], the target named is T3, recombinant D2H receptor domain (human D2H transporter, amino acid residues 387-685), His-tag fusion protein (human, UniProt Q07837 387-685).
T3 construct: purified under denaturing conditions; coated on plates
T3 sequence: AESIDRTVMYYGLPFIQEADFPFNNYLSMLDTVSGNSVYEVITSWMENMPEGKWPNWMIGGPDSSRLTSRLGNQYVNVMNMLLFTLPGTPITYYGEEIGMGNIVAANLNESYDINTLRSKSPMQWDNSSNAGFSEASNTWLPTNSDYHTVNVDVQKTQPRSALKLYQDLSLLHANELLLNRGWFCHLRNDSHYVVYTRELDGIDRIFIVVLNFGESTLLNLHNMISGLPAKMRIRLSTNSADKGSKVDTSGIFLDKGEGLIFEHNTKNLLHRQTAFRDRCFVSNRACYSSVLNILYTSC
Kind of series: phage ELISA, OD on D2H over OD on BSA. On the procedure:
as §1, with “6.6. Receptor ELISA Procedure 96” for “96”
Binding to fixed Caco-2 cells, D2H and BSA was examined.

The target in series [7] is bovine serum albumin (bovine) (UniProt P02769). The series is described as follows: phage ELISA on coated BSA. The source holds these as a separate data set.
Series [8] deals with T4, recombinant D2H receptor domain (human D2H transporter, amino acid residues 387-685), His-tag fusion protein (human), Q07837.
T4 chain: T3 sequence
The series is described as follows: phage ELISA on coated D2H.

Series [9] deals with T4, recombinant D2H receptor domain (human …). Kind of series: phage ELISA, OD on D2H over OD on BSA.

Chain of bovine serum albumin (bovine) (P02769 25-607 limits assumed): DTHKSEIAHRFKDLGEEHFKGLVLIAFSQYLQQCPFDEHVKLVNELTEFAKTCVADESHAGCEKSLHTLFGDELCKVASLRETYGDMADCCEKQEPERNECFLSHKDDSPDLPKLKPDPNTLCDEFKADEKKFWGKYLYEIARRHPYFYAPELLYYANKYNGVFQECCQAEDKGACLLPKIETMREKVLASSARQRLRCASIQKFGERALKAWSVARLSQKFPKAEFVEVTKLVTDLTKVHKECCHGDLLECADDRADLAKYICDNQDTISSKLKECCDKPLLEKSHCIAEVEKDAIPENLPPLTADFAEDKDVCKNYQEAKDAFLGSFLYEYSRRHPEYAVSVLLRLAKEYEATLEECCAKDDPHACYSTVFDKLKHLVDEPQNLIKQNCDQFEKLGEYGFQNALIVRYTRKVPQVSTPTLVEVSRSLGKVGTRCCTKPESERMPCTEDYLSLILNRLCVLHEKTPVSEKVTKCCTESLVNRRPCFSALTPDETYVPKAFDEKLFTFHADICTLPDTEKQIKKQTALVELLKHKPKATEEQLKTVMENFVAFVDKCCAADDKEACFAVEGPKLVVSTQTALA
T2 sequence (P14410 272-667 limits assumed, form in doubt, one chain of several): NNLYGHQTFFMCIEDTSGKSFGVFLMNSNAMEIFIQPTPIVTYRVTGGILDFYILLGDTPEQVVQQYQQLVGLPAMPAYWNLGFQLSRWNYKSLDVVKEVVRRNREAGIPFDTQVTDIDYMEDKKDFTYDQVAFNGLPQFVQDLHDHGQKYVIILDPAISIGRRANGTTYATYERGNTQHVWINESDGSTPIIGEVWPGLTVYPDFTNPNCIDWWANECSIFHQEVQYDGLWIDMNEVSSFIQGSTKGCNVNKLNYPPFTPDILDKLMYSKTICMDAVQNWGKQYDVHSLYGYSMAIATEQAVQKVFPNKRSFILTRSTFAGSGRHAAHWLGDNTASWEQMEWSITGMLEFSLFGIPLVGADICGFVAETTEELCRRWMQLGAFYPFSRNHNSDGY
Chain of BSA (P02769 25-607): as the sequence (P02769 25-607 limits assumed) above

As to “GST-HAX42: GST-fusion protein from HAX42 (SDHALGTNLRSDNAKEPGDYNCCGNGNSTGRKVFNRRRPSAIPT; cysteine pairing not given here; also: GST fusion)”, the “Binding to fixed Caco-2 or C2BBe1 cells relative to GST control” value in the series on fixed Caco-2 cells was “weak to moderate binding”. For the same molecule, the “Crossreactivity of GST fusion to ZElan018 (PAX2) and ZElan021 (HAX42)” value in the series with fixed C2BBe1 cells was “exhibited crossreactivity”. Also, in [1], the “Value (binding to P100 as ratio of GST-HAX42 binding)” value is 1.00.
With “RGSTGTAGGERSGVLNLHTRDNASGSGFKPWYPSNRGHK (not fully specified) [Peptide 5PAX5]”, the hPEPT1 in the series with hPEPT1 (phage panned on hPEPT1) amounted to 0.15 OD. In addition, the PEPT1/BSA in the series with hPEPT1 (ratio of hPEPT1 to BSA binding) stood at 4. Also, the BSA in the series with BSA came out at 0.036 OD. For the same molecule, in [2], the “Binding to / presence in the intestine samples” value is reported as “not found”, the “Presence in the portal circulation” value is “not found” and the “Presence in the systemic circulation” value is “found in the systemic circulation”.

B1: phage S21 (peptide)
peptide: SPRSFWPVVSRHESFGISNYLGCGYRTCISGTMTKSSPIYPRHS
notes: M13 phage displaying this insert as N-terminal pIII fusion; whole phage in the ELISA
For B1, the OD in series [3] is 0.092 OD 650 nm; in series [4], 0.845 OD 650 nm. The hSI/BSA in [5] came out at 9 ratio.

B2: phage DCX36 (peptide)
peptide: SWSSWNWSSKTTRLGDRATREGCGPSQSDGCPYNGRLTTVKPRT
notes: as for B1
Consider B2, for which the D2H/BSA in series [6] turned out to be 5 ratio.
In the case of SGSLNAWQPRSWVGGAFRSHANNNLNPKPTMVTRHPT (modifications not checked) [phage DCX39], the OD in [7] was 0.066 OD 650 nm; in [8], 0.299 OD 650 nm. Further, the D2H/BSA in series [9] amounted to 5.

Source of the values: US7053177B1, “Random peptides that bind to gastro-intestinal tract (GIT) transport receptors and related methods” (Cytogen Corporation, priority 1997, dated 2006).
